One molecule from paper PMC5614898 can be followed below.

As a reminder, the Kd is the constant that tells how readily two partners part at equilibrium.

This data set deals with T1, FOXA2-DBD without wing 2 (human, UniProt Q9Y261 157-239).
T1 sequence: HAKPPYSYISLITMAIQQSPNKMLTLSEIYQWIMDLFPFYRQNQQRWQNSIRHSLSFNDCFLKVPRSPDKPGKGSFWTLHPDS
In words: ITC. On the technique in general: ITC needs no label: the signal is the heat of the interaction.

B1: DBE2 (Daf-16 family binding element 2) (dsDNA)
DNA 1: TGCAAAATGTAAACAAGACT
DNA 2: AGTCTTGTTTACATTTTGCA
The molecule B1 showed a Kd of 3.5 ± 0.3 µM.
